± gives the uncertainty stated by the source.
Assay: amyloid nucleation score (Sup35N fusion, yeast selection) (log enrichment); library NNK3; higher = more nucleation; inactive = no reads after selection
In short: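 Peptides of 20 random codons, each fused to Sup35N, were expressed in psi-negative yeast. Cells were induced with 100 μM copper sulfate for 24 hours and grown 7 days at 30°C on medium lacking adenine and uracil, and plasmid inserts before and after selection were Illumina-sequenced. Nucleation scores are DiMSum log enrichments of output over input reads, centred on the mode score of non-aggregating sequences, and sequences under 100 input reads were excluded.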

| Substance | amyloid nucleation score |
| --- | --- |
| YKETDLQIFRAIVVSSSYWD | inactive |
| GISFSFRFLNENFHCVFRRA | inactive |
| TGEQECLKQMSISGNRIFVV | inactive |
| MRTMISYMVRVVRTHTCFLD | inactive |
| SRCSSGRLCWRFASHSRGTS | -0.826 ± 1.4 |
| FGPAMCYSLIVQLTSVYRGG | 1.99 ± 0.087 |
| INMNDSINGS | 0.231 ± 0.62 |
| ASRIDNIDWGGRKKLRNVEG | inactive |
| LSYESCFGSHVGMRAEGCSR | -0.485 ± 1.2 |
| RDNVFCVDVDICILVVR | inactive |
| IFASDTVL | inactive |
| VWMVCSPSGIRLANSFVVDI | inactive |
| MRISRAVHELWILNFVTKES | -0.52 ± 1.3 |
| RFGFS | inactive |
| YGYEHALQFIFYLFNHLSWS | inactive |
| FITFLLVVFSKKCVNAK | inactive |
| TSFSYNLGTISDRCVWILAD | -0.116 ± 0.9 |
| MAPVGL | inactive |
| KNTVSYSATLGKVSMSERRR | inactive |
| PNGALK | inactive |
| RVTCLFFNPRRTTNYSSSVG | 1.1 ± 0.11 |
| RVNILFNFFCHTVW | 1.2 ± 0.13 |
| ISTKGITTRSLLDFKILCIT | inactive |
| LIQDFTSSGRI | inactive |

| Substance | amyloid nucleation score |
| --- | --- |
| WKYRSKRWMMLSASVRLYSS | inactive |
| MNLDVWSFMSMFNSFRVWVQ | inactive |
| FNDKSMFDASKAMPFSLIAG | inactive |
| HLSRCYCYNDVSLARNFNDR | inactive |
| VMCVGYGTSRYSWVAFGLDK | inactive |
| YEHRCCHSNIDIFGLQSRNV | inactive |
| MPTTHASLSSSFLG | inactive |
| HYLWCVYII | inactive |
| SARSGAAISTSSNKVTPVYT | inactive |
| FAGESN | inactive |
| GLHIRFQNYLRQGQ | 1.22 ± 0.17 |
| LLLCYYNGIWRFDGRLS | inactive |
| WTIDTD | inactive |
| LFYFKRFWYVLLLANLLDM | inactive |
| SLRWLISESAMRVKTMWRGG | inactive |
| FRDIRFAQSMMLSRKIIALL | inactive |
| CCNMYVSFTCWHRRRSFS | 1.23 ± 0.13 |
| ADFKKVSSLLRSTGLVGGFR | inactive |
| WGESNVSTIV | inactive |
| MTVPTCHNDASARLMLRLLG | inactive |
| TGLKYRLY | inactive |
| GSFVVMF | inactive |
| LNTCNVFKYFVSGKRFREVG | inactive |
| VNWSSFIFESTSIFS | 0.476 ± 0.28 |

| Substance | amyloid nucleation score |
| --- | --- |
| SVVIYWIWNCL | 3.09 ± 0.068 |
| GKVSAFCMHGGYTCDLSVEL | inactive |
| FTDLTVNPNYNFYMCSLNRL | 2.72 ± 0.054 |
| AEALCQFIYCFAASKLTGVC | inactive |
| TKGFTSLSTIFFKVNKFD | inactive |
| TWAWPGRYYQWLQLQLGLNK | inactive |
| WSCASSCFY | inactive |
| EVLSNDGAGLFFHGKKCMYI | inactive |
| YNMYQTHLSSYNYHQDATKN | 1.7 ± 0.095 |
| SASGGFVLFLWLVCEGTFAG | 0.069 ± 0.38 |
| FTVSFRYSLCCRDGDGESEC | 1.97 ± 0.087 |
| QGNSIWMYLGWVNKTML | inactive |
| IYEVVMVCISESLFLLMVKG | inactive |
| EVSSGCCERGVYLMLLCTGT | 0.091 ± 0.53 |
| CSNSGFTGENRVARLPRDGG | inactive |
| NCFMRLMVFAKRVIGCLQPP | 0.15 ± 0.43 |
| PNHEFYRARFRLCNAICTTV | inactive |
| PCSGLKCSKGCWCNKICKYK | 1.37 ± 0.13 |
| LVESDLYVCTTVRGQVSMKG | inactive |
| WVRVVFSGSRYRTVCSGSRC | -0.788 ± 1.4 |
| SQVFTVALNVPNNR | inactive |
| SENGECKATVLCMLSSPVVC | inactive |
| RVMWYGGCCWSVIYCHRLGV | inactive |
| GFIDVPG | inactive |

| Substance | amyloid nucleation score |
| --- | --- |
| RLYVLAGITLTMTSTTKRSL | inactive |
| VGAKRFPYVYWAYGSYVFAD | inactive |
| KRWEPMACPDSNRDKLKECV | inactive |
| HKGFVSKIGNN | -0.4 ± 0.9 |
| MSYINRAPFAMSGLFCAWFD | inactive |
| YYVYSRGALLYHYILQMARL | inactive |
| CMPFMR | inactive |
| DKVIHVAGFKVIDCHSSRIR | inactive |
| ISLLTVHTVSVTF | inactive |
| SWCQGNCGMLLAHRSYKRAY | -0.48 ± 0.55 |
| DEKIGGTVKYGVVQAYV | inactive |
| LLFSAKGFECLMFVNRLYLA | inactive |
| WYVFPCRDLVDMCCSGRCAV | inactive |
| IVFMRLRMRVICPLCSVRLS | 0.385 ± 0.2 |
| TGQQE | inactive |
| IVTLNYQLMYKMPKLLWSSN | inactive |
| GEYMRLYVSVTGYTVYYSVR | 0.882 ± 0.2 |
| RHDVSSGSYGGRSGAGSPAQ | inactive |
| LVYLQDLQLSSMLDFHSCM | inactive |
| MGVYAINVRYSAERVMLVAP | inactive |
| YPMRCTCMDGGNSWDLM | 0.177 ± 0.27 |
| LRVCTELRMVLDISYNVGNF | 0.68 ± 0.18 |
| GLRTFIG | inactive |
| YLLVFCSNF | 2.29 ± 0.091 |

| Substance | amyloid nucleation score |
| --- | --- |
| VMCLPLPKFI | inactive |
| SPYVYRTWFRTLEYCTRDDM | inactive |
| CSVGVAVGMIG | inactive |
| DISKFNDSLSPSELSGLIFS | inactive |
| SISQTIVCTRPRVSAMIWFC | inactive |
| LLLSSILRYS | inactive |
| QIVFIRPKNL | inactive |
| RRVSMPLSGDKSRSVEGVRR | inactive |
| QYQCADGKDNFIL | inactive |
| DIAREVCSTCLKV | inactive |
| TTMRSIPRGRRT | inactive |
| VYYSWVICSMERTKSWSMSS | -0.227 ± 0.75 |
| SITRELGNETLYSLLGPRAF | inactive |
| PGISRNFVNGPRWSMFS | inactive |
| SRRKGQVVGCLQTMCCCKVE | inactive |
| LSSDNCTFPFHRLGGYKQSY | inactive |
| SHHSL | inactive |
| DYDYTRFPVITV | inactive |
| YRYVCWFTTILTYTNGRFSS | inactive |
| TMLLLWYLHWSPAPRDCYLP | inactive |
| KSHWTTM | 1.64 ± 0.11 |
| NLLLFF | 1.82 ± 0.096 |

— the supplement of paper PMC12042874
